What is called Kd is the equilibrium constant for the complex coming apart.

The record followed here is publication PMC3808355.

This data set deals with ProQ (Escherichia coli (BW25113-derived; ASKA pCA24N clone or pMCSG7 clone)). Put plainly: tryptophan fluorescence titration. The following applies: 20 nM ProQ, excitation 295 nm, emission 355 nm, buffer, salt, pH and temperature not in the material.
With proP P1 mRNA, the Kd was determined as 17 nM.
Then proP P2 mRNA, with 11.6 nM; and rpoS mRNA, with 19.5 nM.
